Data published in article doi:10.1101/2025.10.31.685773 (bioRxiv, 2025).

B1: ADLP (TT_C1082, alanine dehydrogenase-like protein from Thermus thermophilus HB27) with N-terminal Strep-tag (natural protein)
chain: MEFGVPKERSGGEIPERRVPLTPQGVRELVASGHRVYVERGAGEGAGFPDEAYEEAGARLVGREEAFGRPQVVLKVARPTLEEVGLMRKNAVLMAFLHLAVAESPLVEAMAQKGLTAIGYELVGEEGRRPVLKAMSEIAGRMAPQLAGRLLEAPQGPGILLSGLVGIPPADVVVLGAGVLGRAAARAFLGAGASVHLLDRALPPLEEAAREAPGAITALVTQDRLERYVAFADVLVGAVAVPGERTPLLLTRGLLARMRPGSVLLDFSIDQGGVSETSRPGVYQEMGVTHFCLPNVPALVPRTASHALTATLLPYLLRIQEDPLALPGLRQGAYLLFGEKGGHLE

Legend:
[1] = target: TtCoAT (TT_C1083, CoA transferase from Thermus thermophilus HB27) with C-terminal (His)6-tag (Thermus thermophilus HB27) (UniProt Q72IP9); assay: SEC
[2] = target: TtCoAT (TT_C1083, CoA transferase from Thermus thermophilus HB27) with C-terminal (His)6-tag (Thermus thermophilus HB27) (UniProt Q72IP9); assay: cryo-EM structure
[3] = target: TtCoAT (TT_C1083, CoA transferase from Thermus thermophilus HB27) with C-terminal (His)6-tag (Thermus thermophilus HB27) (UniProt Q72IP9); assay: cryo-EM structure; remark: listed apart in the source
cryo-EM structure = target: the molecule itself; assay: cryo-EM structure

| Molecule | stoichiometry N [1] | stoichiometry N [2] | stoichiometry N [3] | stoichiometry N (cryo-EM structure) |
| --- | --- | --- | --- | --- |
| TtCoAT (TT_C1083, CoA transferase from Thermus thermophilus HB27) with C-terminal (His)6-tag (from UniProt Q72IP9 1-444) (enzyme) | 4 | 2 | 2 |  |
| B1 |  |  |  | 6 |
